Test results as given in patent US20260355310A1, “TREATMENT OF IGA NEPHROPATHY USING AN ENDOTHELIN RECEPTOR ANTAGONIST AND APRIL BINDING ANTIBODY” (CHINOOK THERAPEUTICS, INC., priority 2022, published 2026).
One block for each molecule: values may come before it.

Key:
ETB receptor = settings: Wu-Wong et al. 2002; cited from earlier work
[1] = system: endothelin A (ETA) receptor; settings: cited from earlier work
[2] = system: patients with diabetic kidney disease (DKD); settings: Heerspink et al. 2019; cited from earlier work
[3] = Oxidation reduction potential; type: physicochemical
IgA nephropathy patients = settings: DAPA-CKD subanalysis; Wheeler et al. 2021; cited from earlier work
[4] = system: transmembrane activator and calcium modulator and cyclophilin ligand interactor (TACI) / human APRIL; test: Blocking of APRIL binding to TACI
healthy human volunteers = test: Immunoglobulin levels in healthy volunteers; type: in vivo
Excerpt: (§1) A humanized APRIL antagonistic monoclonal antibody (anti-APRIL antibody, as described herein) is in development for the treatment of IgAN, having undergone clinical trials in healthy volunteers (see clinicaltrials.gov NCT03945318). […] In addition, this blockade reduced Gd-IgAQ1 in healthy human volunteers. Consequently, it is expected that blockade of APRIL in patients with IgAN will lead to a reduction in levels of IgA, IgG, and IgM and corresponding reductions in gd-IgA1, auto-antibodies to gd-IgA1, immune complex deposition and renal damage.

[5] = system: human B cell maturation antigen (BCMA) / human APRIL; settings: receptors on lymphocytes; Guadagnoli 2011; cited from earlier work
[6] = system: healthy cynomolgus monkeys; test: Immunoglobulin levels in healthy cynomolgus monkeys; type: in vivo
Excerpt: as §1

patients with IgAN = test: Phase 1/2 clinical study in patients with IgAN, interim results; type: in vivo, human
Excerpt: BION-1301 has been studied in adults with relapsed or refractory multiple myeloma as well as healthy volunteers (HVs) and adults with IgAN. Since the initiation of the BION-1301 clinical program through 26 Jul. 2022, a total of 153 adults have been enrolled in 5 clinical studies. […] Gd-IgA1, and proteinuria (as measured by areduction in UPCR).
BION-1301 has been studied in adults with relapsed or refractory multiple myeloma as well as healthy volunteers (HVs) and adults with IgAN. Since the initiation of the BION-1301 clinical program through 26 Jul. 2022, a total of 153 adults have been enrolled in 5 clinical studies.

[7] = system: transmembrane activator and calcium modulator and cyclophilin ligand interactor (TACI) / human APRIL; settings: receptors on lymphocytes; Guadagnoli 2011; cited from earlier work
[8] = system: human B cell maturation antigen (BCMA) / human APRIL; test: Blocking of APRIL binding to BCMA
BAFF = test: Binding to BAFF; settings: BION-1301
[9] = IV 450 mg Q2W, patients with IgAN, interim results
[10] = SC 600 mg Q2W after at least 24 weeks of IV administration

oxidation reduction potential [3]: about 900 mV
Molecule: CCCCN(CCCC)C(=O)CN1C[C@H](c2ccc3c(c2)OCO3)[C@@H](C(=O)O)[C@@H]1c1ccc(OC)cc1 [Atrasentan, (2R,3R,4S)-4-(1,3-benzodioxol-5-yl)-1-[2-(dibutylamino)-2-oxoethyl]-2-(4-methoxyphenyl)pyrrolidine-3-carboxylic acid]
Ki (ETB receptor): ~63 nM
selectivity for ETA relative to ETB ([1]; ETA inhibitor, ETA relative to ETB, literature): about 1,860 times
ETA selectivity ([1]; ETA relative to ETB, Wu-Wong et al. 2002): ~ 1800 x
Ki ([1]; Wu-Wong et al. 2002): ~0.034 nM
risk of renal events (doubling of serum creatinine or end-stage kidney disease) [2]: significantly reducing the risk of renal events

Molecule: CCOc1ccc(Cc2cc([C@@H]3O[C@H](CO)[C@@H](O)[C@H](O)[C@H]3O)ccc2Cl)cc1 [dapagliflozin]
safety and efficacy as addition to standard of care in IgA nephropathy (IgA nephropathy patients): may be a safe and effective addition to current standard of care in IgA nephropathy

blocks binding of human APRIL to TACI [4]: blocks the binding
binding to BAFF (BAFF): does not bind BAFF
B1: BION-1301: IgG4 humanized monoclonal antibody having CAS Registry No. 2642175-46-8; SEQ ID NO: 28 for the heavy chain and SEQ ID NO: 30 for the light chain (antibody, chains of the INN, looked up, V domains shown)
VH: QVQLVQSGAEVKKPGASVKVSCKASGYTFTDYTIHWVRQATGQGLEWMGWIYPLRGSINYAQKFQGRVTMTADKSISTVYMELSSLRSEDTAVYFCARHGAYYSNAFDYWGQGTLVTVSS
VL: EIVMTQSPATLSVSPGERATLSCRASESVDNDGIRFLHWYQQKPGQAPRLLIYRASTRATGIPARFSGSGSRTEFTLTISSLQSEDFAVYYCQQSNKDPYTFGGGTKVEIK
Gd-IgA1 (healthy human volunteers; healthy human volunteers): reduced
levels of IgA (healthy human volunteers; healthy volunteers): significantly reduce the levels of IgA
blocks interaction of APRIL with BCMA [5]: effectively blocks
IgA [6]: significantly lower
IgM [6]: significantly lower
Gd-IgA1 (patients with IgAN; [9]): sustained reductions
free (unbound) APRIL (patients with IgAN; [9]): sustained reductions
proteinuria (as measured by reduction in UPCR) (patients with IgAN; [9]): sustained reductions
tolerability (patients with IgAN; [9]): well-tolerated
BION-1301 exposures after transition to SC dosing (patients with IgAN; [10]): maintained similar BION-1301 exposures
biomarker responses after transition to SC dosing (patients with IgAN; [10]): maintained similar BION-1301 exposures, biomarker responses
proteinuria reductions after transition to SC dosing (patients with IgAN; [10]): maintained similar BION-1301 exposures, biomarker responses and proteinuria reductions
serum BION-1301 concentrations (patients with IgAN; following IV infusion, patients with IgAN vs healthy volunteers at same dose and schedule): appeared comparable to those observed in healthy volunteers at the same dose and schedule
24-hour UPCR (patients with IgAN; patients treated with BION-1301, on average): reduction in 24-hour UPCR which was evident by 3 months and continue to decline beyond 1 year
blocks interaction of APRIL with TACI [7]: effectively blocks
blocks binding of human APRIL to BCMA [8]: blocks the binding
